What was measured:
[1] = target: human plasma-derived Factor X zymogen (human) (UniProt P00742); assay: apparent KD fitted from FXa generation assay
[2] = target: human plasma-derived Factor X zymogen (human) (UniProt P00742); assay: cell-based or functional assay
[3] = target: human activated Factor X (human) (UniProt P00742); assay: cell-based or functional assay
Chain of human activated Factor X (human) (P00742 41-179, chain 1 of 2): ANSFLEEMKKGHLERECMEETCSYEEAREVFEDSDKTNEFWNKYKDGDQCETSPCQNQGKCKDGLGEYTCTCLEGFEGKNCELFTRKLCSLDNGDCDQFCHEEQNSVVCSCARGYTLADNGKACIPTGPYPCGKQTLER
Chain of human activated Factor X (human) (P00742 235-488, chain 2 of 2): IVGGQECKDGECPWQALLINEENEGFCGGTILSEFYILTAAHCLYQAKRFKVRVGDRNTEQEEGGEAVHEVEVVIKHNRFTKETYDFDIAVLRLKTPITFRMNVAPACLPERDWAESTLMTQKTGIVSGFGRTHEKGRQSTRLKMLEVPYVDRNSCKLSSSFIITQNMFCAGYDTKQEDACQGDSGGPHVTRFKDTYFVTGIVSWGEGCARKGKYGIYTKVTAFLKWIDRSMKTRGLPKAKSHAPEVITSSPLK

Chain of human plasma-derived Factor X zymogen (human) (P00742 41-179, chain 1 of 2): as the sequence (P00742 41-179, chain 1 of 2) above
Chain of human plasma-derived Factor X zymogen (human) (P00742 183-488, chain 2 of 2): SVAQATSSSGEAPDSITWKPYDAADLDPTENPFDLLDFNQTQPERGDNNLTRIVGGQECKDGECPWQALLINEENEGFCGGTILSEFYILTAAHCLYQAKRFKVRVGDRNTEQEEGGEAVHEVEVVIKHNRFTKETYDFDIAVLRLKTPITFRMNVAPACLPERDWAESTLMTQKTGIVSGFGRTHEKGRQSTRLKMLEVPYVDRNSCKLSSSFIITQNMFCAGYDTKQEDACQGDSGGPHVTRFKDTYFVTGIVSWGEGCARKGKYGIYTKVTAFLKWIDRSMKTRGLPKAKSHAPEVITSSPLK

Fab ACE910 anti-FX (J327/L404-k)
Kd [1]: 3.9 µM
Increase in FX activation (fold) [2]: < 0.6 fold
FXa amidolytic activity (relative to free FXa, fold) [3]: 1.02 fold
